Measured values from patent US20240409619A1.

Target: SARS-COV-2 spike protein, isolate USA-WA1/2020, on pseudotyped virus (SARS-COV-2) (UniProt P0DTC2)
Experiment: cell-based or functional assay

DMAb 2130_FcTM (antibody) was tested. Which serum potency (IC50) against USA-WA1/2020 pseudovirus did it give?
Its serum potency (IC50) against USA-WA1/2020 pseudovirus is 1 to 2 ng/mL.
